# B1: CD33 YES gate DNA1/LOCK (mixed)
# DNA 1: TAGCTTATCAGACTGATGTTGATACCAGTGCGATGCTCAGCACGCTTATAGGGGCTGGACAAAATTCTACCCAGCCTTTTCTGACGCATTCGGTTGAC
# DNA 2: CACTGGTATCAACATCAGTC
# Biological target: CD33 (UniProt P20138 18-259)
# Test: LOCK displacement, CHA/Cas12a fluorescence
# CD33, sequence (P20138 18-259): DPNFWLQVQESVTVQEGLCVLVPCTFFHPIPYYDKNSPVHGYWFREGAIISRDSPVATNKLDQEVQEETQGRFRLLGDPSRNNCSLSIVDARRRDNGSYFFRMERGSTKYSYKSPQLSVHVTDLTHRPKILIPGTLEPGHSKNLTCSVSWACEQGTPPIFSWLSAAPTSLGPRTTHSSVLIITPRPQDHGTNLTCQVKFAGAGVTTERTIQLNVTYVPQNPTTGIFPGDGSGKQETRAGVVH
binder,measurement,value
B1,binding result,binds

# From publication PMC11983205
